According to paper PMC7686228:

Assays:
[1] = target: parDMFase large subunit expressed and purified without the small subunit (Paracoccus sp. strain DMF); assay: SEC; large subunit purified without the small subunit; data not shown
[2] = target: parDMFase α2β2 complex (the 'dimer', 200 kDa) (Paracoccus sp. strain DMF); assay: cryo-EM structure; purified parDMFase on ice; data set with 200 mM NaCl, tetramer (α2β2)2 reconstruction at 2.8 Å (initial mixed data set: 3.8 Å); step: dimer of α2β2 dimers

stoichiometry N [1] | stoichiometry N [2] | Substance
2 |  | parDMFase large subunit expressed and purified without the small subunit (enzyme)
 | 2 | parDMFase α2β2 complex (the 'dimer', 200 kDa)
